Holding throughout (test): SPR
The target of assay [1] is T1, human CD25-extracellular domain (CD25-ECD) (UniProt P01589 22-240).
T1 chain: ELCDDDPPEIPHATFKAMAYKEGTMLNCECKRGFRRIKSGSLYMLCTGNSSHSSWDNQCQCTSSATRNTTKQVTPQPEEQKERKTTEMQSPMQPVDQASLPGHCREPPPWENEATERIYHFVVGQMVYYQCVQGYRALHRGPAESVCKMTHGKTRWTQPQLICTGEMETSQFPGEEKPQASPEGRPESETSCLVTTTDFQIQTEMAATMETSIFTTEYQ

Assay [2] addresses T1, human CD25-extracellular domain ….
For assay [3] the target is unchanged.
Assay [4] concerns the target cynomolgus CD25.
The target in the next assay is cCD25.
Assay [5] addresses cynomolgus CD25. This is another data set of the same source.
For assay [6], the target named is cynomolgus CD25. This is another data set of the same source.
For assay [7], the target named is T1, human CD25-extracellular domain ….
Assay [8] shares this target.
Assay [9] has the same target.
Assay [10] has as its target cynomolgus CD25. The source holds these as a separate data set.
Assay [11] concerns the target T1, human CD25-extracellular domain ….
For assay [12], the target named is cynomolgus CD25. The source holds these as a separate data set.
For assay [13], the target named is T1, human CD25-extracellular domain ….

Like-named read-outs stand apart in the source and are kept apart here.

B1: humanized anti-CD25 V-body 46A3 (VHH)
VHH: EVQLLESGGGLAQPGGSLRLSCAASGFTFSNYAMSWARQAPGKGLEWVSGIYSDGSGTYYADSVKGRFTISRDNAKNTVYLQMNSLRPEDTAVYYCAKGRNSGSYYPWDDYWGQGTQVTVSS
Take B1: the equilibrium dissociation constant (Kd) in [1] and in assay [2] was 49 nM in each case.

B2: ODY-N1813Hu1 (antibody, V domains shown)
VH: EVQLLESGGGLAQPGGSLRLSCAASGFTFSNYAMSWARQAPGKGLEWVSGIYSDSSGTYYADSVKGRFTISRDNAKNTVYLQMNSLRPEDTAVYYCAKGRGSGSYYPFEDYWGQGTQVTVSS
Turning to B2, the dissociation constant Kd – broadly, the equilibrium constant for the complex coming apart – in [3] amounted to 50 nM.

B3: ODY-46A3 (VHH)
VHH: EVQLLESGGGLAQPGGSLRLSCAASGFTFSNYAMSWARQAPGKGLEWVSGIYSDGSGTYYADSVKGRFTISRDNAKNTVYLQMNSLRPEDTAVYYCAKGRNSGSYYPWDDYWGQGTQVTVSS
B3 came in with a Kd with cynomolgus CD25 [4] of 34 nM.

B4: 47D3 (VHH)
VHH: EVQLLESGGGLVQPGGSLRVSCAASGRTFSWNGMGWFRQAPGKEREFVAAISQSGGRTRYADSVKGRFTISRDNAKNTVYLQMNSLRPEDTAVYYCAASDFLLATTISAYDYWGQGTQVTVSS
As for B4, the Kd with cCD25 and with cynomolgus CD25 [5] was 49 nM in each case.

B5: ODY-83B05Hu1 (VHH)
VHH: EVQLLESGGGLVQPGGSLRLSCAASGFTLDYYAIGWFRQAPGKEREGVLSISSTDGRTYYADSVKGRFTISRDNPKNTVYLQLNSLRPEDTAVYYCAAKRLGPMVHRYSLEVLTPLFLDEYDYWGQGTQVTVSS
On to B5, for which the Kd with cynomolgus CD25 [6] was found to be 97 nM; in [7] it was 35 nM.

B6: 83F07Hu1_L (antibody, V domains shown)
VH: EVQLLESGGGLVQPGGSLRLSCAASGFTLDYYAIGWFRQAPGKEREGVLSISSTDGRTYYADSVKGRFTISRDNPKNTVYLQLNSLRPEDTAVYYCAAKRLGPLVHQYSLEVLTPLFLDEYDYWGQGTQVTVSS
The molecule B6 had a dissociation constant Kd in [8] of 97 nM.

B7: 83B05Hu1_L (antibody, V domains shown)
VH: EVQLLESGGGLVQPGGSLRLSCAASGFTLDYYAIGWFRQAPGKEREGVLSISSTDGRTYYADSVKGRFTISRDNPKNTVYLQLNSLRPEDTAVYYCAAKRLGPLVHRYSLEVLTPLFLDEYDYWGQGTQVTVSS
Turning to B7, binding in [9] was put at a Kd of 61 nM.

B8: ODY-83F07Hu1 (VHH)
VHH: EVQLLESGGGLVQPGGSLRLSCAASGFTLDYYAIGWFRQAPGKEREGVLSISSTDGRTYYADSVKGRFTISRDNPKNTVYLQLNSLRPEDTAVYYCAAKRLGPMVHQYSLEVLTPLFLDEYDYWGQGTQVTVSS
Regarding B8, the Kd stood at 97 nM in the assay with cynomolgus CD25 [10] and 58 nM in [11].

B9: ODY-83B03Hu1 (VHH)
VHH: EVQLVESGGGLVQPGGSLRLSCAASGMPLVAMGWYRQAPGKQRELVASISSGGNTGYADSVKGRFTISRDNAKKTVYLQMNSVRPEDTGVYYCNIYRSQVPPTRYSWGQGTQVTVSS
As for B9, the equilibrium dissociation constant (Kd) was determined as 112 nM with cynomolgus CD25 [12] and 21 nM in [13].

These data come from patent US20260258143A1 (published 2026).
